# Source: patent US12383631 (BRIGHT PEAK THERAPEUTICS, dated 2025)
# T1: human IL-18BP-His (human, UniProt O95998 31-194, limits assumed)
# T1 construct: also called His-tagged human IL-18BP; not shown: His tag
# T1 sequence (looked up): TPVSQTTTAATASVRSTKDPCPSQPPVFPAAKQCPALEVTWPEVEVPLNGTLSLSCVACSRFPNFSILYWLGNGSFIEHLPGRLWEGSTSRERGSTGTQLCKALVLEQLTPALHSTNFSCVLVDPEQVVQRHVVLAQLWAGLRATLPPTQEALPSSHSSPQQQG
# T2: IL-18 receptor (IL-18Rα/IL-18Rβ) on cells (HEK-Blue IL18R reporter cells, NK-92, KG-1) (human, UniProt Q13478 19-541; O95256 20-599)
# T2 sequence (looked up) 1: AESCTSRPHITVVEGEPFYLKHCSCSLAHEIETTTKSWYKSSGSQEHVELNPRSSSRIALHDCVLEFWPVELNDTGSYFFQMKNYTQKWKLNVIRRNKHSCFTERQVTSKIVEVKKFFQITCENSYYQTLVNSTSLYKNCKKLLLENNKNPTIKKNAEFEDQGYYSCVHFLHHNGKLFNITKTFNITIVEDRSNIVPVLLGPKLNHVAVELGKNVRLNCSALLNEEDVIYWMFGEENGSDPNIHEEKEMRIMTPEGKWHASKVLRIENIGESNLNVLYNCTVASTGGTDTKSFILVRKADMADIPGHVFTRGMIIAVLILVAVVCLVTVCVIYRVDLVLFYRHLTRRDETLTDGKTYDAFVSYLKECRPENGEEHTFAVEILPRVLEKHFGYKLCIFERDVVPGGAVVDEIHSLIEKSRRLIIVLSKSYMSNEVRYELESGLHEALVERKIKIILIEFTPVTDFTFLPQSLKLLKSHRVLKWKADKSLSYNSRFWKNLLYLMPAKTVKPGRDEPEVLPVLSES
# T2 sequence (looked up) 2: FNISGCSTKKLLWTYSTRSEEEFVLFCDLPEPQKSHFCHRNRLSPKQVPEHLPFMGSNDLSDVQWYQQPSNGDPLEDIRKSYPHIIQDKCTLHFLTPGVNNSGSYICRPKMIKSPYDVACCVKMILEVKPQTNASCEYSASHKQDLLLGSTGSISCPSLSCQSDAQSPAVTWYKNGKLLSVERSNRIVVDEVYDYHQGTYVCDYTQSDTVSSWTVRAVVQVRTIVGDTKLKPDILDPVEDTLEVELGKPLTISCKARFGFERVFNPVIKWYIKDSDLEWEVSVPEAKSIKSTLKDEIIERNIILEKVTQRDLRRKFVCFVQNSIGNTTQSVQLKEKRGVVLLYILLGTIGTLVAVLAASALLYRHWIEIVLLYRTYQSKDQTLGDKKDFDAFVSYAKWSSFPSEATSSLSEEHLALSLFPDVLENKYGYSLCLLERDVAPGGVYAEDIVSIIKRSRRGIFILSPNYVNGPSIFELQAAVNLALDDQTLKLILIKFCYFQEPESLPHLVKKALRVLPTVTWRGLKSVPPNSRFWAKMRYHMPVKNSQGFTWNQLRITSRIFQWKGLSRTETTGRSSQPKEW
# How the values were obtained:
# [1] = biological target: T1, human IL-18BP-His; test: AlphaLISA of free IL-18BP
# Procedure: The plate is incubated further for 1 hr at room temperature. Under subdued light, 12.5 µL of 2× streptavidin (SA) donor beads are pipetted into each well, and the wells are incubated with shaking for an additional 30 min at room temperature. The AlphaLisa signal is then measured on an Enspire plate reader with 680 and 615 nm as excitation and emission wavelengths, respectively. The dissociation constant (K_D) is calculated based on a variable slope, four parameter analysis using GraphPad PRISM software.
# [2] = biological target: T2, IL-18 receptor (IL-18Rα/IL-18Rβ) on …; test: cell-based or functional assay
# [3] = biological target: T2, IL-18 receptor (IL-18Rα/IL-18Rβ) on …; test: cell-based or functional assay; remark: listed apart in the source
Binder,Kd [1],"EC50, HEK-Blue IL18R reporter cells [2]","EC50, IFNγ stimulation, NK92 cells [3]"
"IL-18 polypeptide C142 (ligand, also called Y1M, E6K, V11I, C38A, K53A, T63A, C76A, C127A) MFGKLKSKLSIIRNLNDQVLFIDQGNRPLFEDMTDSDARDNAPRTIFIISMYADSQPRGMAVAISVKCEKISTLSAENKIISFKEMNPPDNIKDTKSDIIFFQRSVPGHDNKMQFESSSYEGYFLAAEKERDLFKLILKKEDELGDRSIMFTVQNED",2250 pM,0.02 pM,
"IL-18 polypeptide C146 (SEQ ID NO: 68) (ligand, also called V11I, C38A, M51G, K53A, C76A, C127A) YFGKLESKLSIIRNLNDQVLFIDQGNRPLFEDMTDSDARDNAPRTIFIISGYADSQPRGMAVTISVKCEKISTLSAENKIISFKEMNPPDNIKDTKSDIIFFQRSVPGHDNKMQFESSSYEGYFLAAEKERDLFKLILKKEDELGDRSIMFTVQNED",373000 pM,0.8 pM,37 pM
"IL-18 polypeptide of SEQ ID NO: 47 (C38S, C68S, C76S, C127S) (ligand) YFGKLESKLSVIRNLNDQVLFIDQGNRPLFEDMTDSDSRDNAPRTIFIISMYKDSQPRGMAVTISVKSEKISTLSSENKIISFKEMNPPDNIKDTKSDIIFFQRSVPGHDNKMQFESSSYEGYFLASEKERDLFKLILKKEDELGDRSIMFTVQNED",30 pM,,115 pM
"IL-18 polypeptide C148 (ligand, also called F2A, V11I, C38A, K53A, C76A, C127A) YAGKLESKLSIIRNLNDQVLFIDQGNRPLFEDMTDSDARDNAPRTIFIISMYADSQPRGMAVTISVKCEKISTLSAENKIISFKEMNPPDNIKDTKSDIIFFQRSVPGHDNKMQFESSSYEGYFLAAEKERDLFKLILKKEDELGDRSIMFTVQNED",57200 pM,7.28 pM,256 pM
"IL-18 polypeptide of SEQ ID NO: 56 (E6K, K53A, C38S, C76S, C127S) (ligand) YFGKLKSKLSVIRNLNDQVLFIDQGNRPLFEDMTDSDSRDNAPRTIFIISMYADSQPRGMAVTISVKCEKISTLSSENKIISFKEMNPPDNIKDTKSDIIFFQRSVPGHDNKMQFESSSYEGYFLASEKERDLFKLILKKEDELGDRSIMFTVQNED",436000 pM,3.73 pM,
"IL-18 polypeptide C143 (ligand, also called V11I, C38A, K53A, C76A, C127A) YFGKLESKLSIIRNLNDQVLFIDQGNRPLFEDMTDSDARDNAPRTIFIISMYADSQPRGMAVTISVKCEKISTLSAENKIISFKEMNPPDNIKDTKSDIIFFQRSVPGHDNKMQFESSSYEGYFLAAEKERDLFKLILKKEDELGDRSIMFTVQNED",8860 pM,0.98 pM,138 pM
"IL-18 polypeptide C149 (ligand, also called V11I, E31A, C38A, K53A, C76A, C127A) YFGKLESKLSIIRNLNDQVLFIDQGNRPLFADMTDSDARDNAPRTIFIISMYADSQPRGMAVTISVKCEKISTLSAENKIISFKEMNPPDNIKDTKSDIIFFQRSVPGHDNKMQFESSSYEGYFLAAEKERDLFKLILKKEDELGDRSIMFTVQNED",640 pM,6.6 pM,187 pM
"IL-18 polypeptide C144 (ligand, also called V11I, C38A, K53A, T63A, C76A, C127A) YFGKLESKLSIIRNLNDQVLFIDQGNRPLFEDMTDSDARDNAPRTIFIISMYADSQPRGMAVAISVKCEKISTLSAENKIISFKEMNPPDNIKDTKSDIIFFQRSVPGHDNKMQFESSSYEGYFLAAEKERDLFKLILKKEDELGDRSIMFTVQNED",660 pM,0.17 pM,12 pM
"IL-18 polypeptide C184 (ligand, also called E6R, V11I, C38A, K53A, T63A, C76A, C127A) YFGKLRSKLSIIRNLNDQVLFIDQGNRPLFEDMTDSDARDNAPRTIFIISMYADSQPRGMAVAISVKCEKISTLSAENKIISFKEMNPPDNIKDTKSDIIFFQRSVPGHDNKMQFESSSYEGYFLAAEKERDLFKLILKKEDELGDRSIMFTVQNED",5460 pM,0.04 pM,
"IL-18 polypeptide C151 (ligand, also called V11I, D35A, C38A, K53A, C76A, C127A) YFGKLESKLSIIRNLNDQVLFIDQGNRPLFEDMTASDARDNAPRTIFIISMYADSQPRGMAVTISVKCEKISTLSAENKIISFKEMNPPDNIKDTKSDIIFFQRSVPGHDNKMQFESSSYEGYFLAAEKERDLFKLILKKEDELGDRSIMFTVQNED",2880 pM,13.1 pM,61 pM
"IL-18 polypeptide of SEQ ID NO: 48 (C38S, C68S, C76S, C127S, K70C) (ligand) YFGKLESKLSVIRNLNDQVLFIDQGNRPLFEDMTDSDSRDNAPRTIFIISMYKDSQPRGMAVTISVKSECISTLSSENKIISFKEMNPPDNIKDTKSDIIFFQRSVPGHDNKMQFESSSYEGYFLASEKERDLFKLILKKEDELGDRSIMFTVQNED",210 pM,,488 pM
"IL-18 polypeptide of SEQ ID NO: 55 (K53A, T63A, C38S, C68S, C76S, C127S, K70C) (ligand) YFGKLESKLSVIRNLNDQVLFIDQGNRPLFEDMTDSDSRDNAPRTIFIISMYADSQPRGMAVAISVKSECISTLSSENKIISFKEMNPPDNIKDTKSDIIFFQRSVPGHDNKMQFESSSYEGYFLASEKERDLFKLILKKEDELGDRSIMFTVQNED",913000 pM,,17200 pM
"IL-18 polypeptide C145 (ligand, also called V11I, C38A, K53A, S55A, C76A, C127A) YFGKLESKLSIIRNLNDQVLFIDQGNRPLFEDMTDSDARDNAPRTIFIISMYADAQPRGMAVTISVKCEKISTLSAENKIISFKEMNPPDNIKDTKSDIIFFQRSVPGHDNKMQFESSSYEGYFLAAEKERDLFKLILKKEDELGDRSIMFTVQNED",9740 pM,3.63 pM,87 pM
"IL-18 polypeptide C147 (ligand, also called V11I, C38A, K53A, D54A, C76A, C127A) YFGKLESKLSIIRNLNDQVLFIDQGNRPLFEDMTDSDARDNAPRTIFIISMYAASQPRGMAVTISVKCEKISTLSAENKIISFKEMNPPDNIKDTKSDIIFFQRSVPGHDNKMQFESSSYEGYFLAAEKERDLFKLILKKEDELGDRSIMFTVQNED",25800 pM,1 pM,79 pM
"IL-18 polypeptide C150 (ligand, also called V11I, T34A, C38A, K53A, C76A, C127A) YFGKLESKLSIIRNLNDQVLFIDQGNRPLFEDMADSDARDNAPRTIFIISMYADSQPRGMAVTISVKCEKISTLSAENKIISFKEMNPPDNIKDTKSDIIFFQRSVPGHDNKMQFESSSYEGYFLAAEKERDLFKLILKKEDELGDRSIMFTVQNED",1240 pM,0.7 pM,15 pM
"IL-18 polypeptide C174 (ligand, also called K8L, E6K, V11I, C38A, K53A, T63A, C76A, C127A) YFGKLKSLLSIIRNLNDQVLFIDQGNRPLFEDMTDSDARDNAPRTIFIISMYADSQPRGMAVAISVKCEKISTLSAENKIISFKEMNPPDNIKDTKSDIIFFQRSVPGHDNKMQFESSSYEGYFLAAEKERDLFKLILKKEDELGDRSIMFTVQNED",140 pM,0.29 pM,
"IL-18 polypeptide C176 (ligand, also called E6K, V11I, C38A, I49M, K53A, T63A, C76A, C127A) YFGKLKSKLSIIRNLNDQVLFIDQGNRPLFEDMTDSDARDNAPRTIFIMSMYADSQPRGMAVAISVKCEKISTLSAENKIISFKEMNPPDNIKDTKSDIIFFQRSVPGHDNKMQFESSSYEGYFLAAEKERDLFKLILKKEDELGDRSIMFTVQNED",25800 pM,0.07 pM,
